Test results published in patent US10875904B2.

Molecular target: ovalbumin peptide SIINFEKL presented on mouse MHC Class I H-2Kb on OP9-DL1 cells (mouse) (UniProt P01901)
Assay: cell-based or functional assay

Chain of UniProt P01901 (P01901 22-369): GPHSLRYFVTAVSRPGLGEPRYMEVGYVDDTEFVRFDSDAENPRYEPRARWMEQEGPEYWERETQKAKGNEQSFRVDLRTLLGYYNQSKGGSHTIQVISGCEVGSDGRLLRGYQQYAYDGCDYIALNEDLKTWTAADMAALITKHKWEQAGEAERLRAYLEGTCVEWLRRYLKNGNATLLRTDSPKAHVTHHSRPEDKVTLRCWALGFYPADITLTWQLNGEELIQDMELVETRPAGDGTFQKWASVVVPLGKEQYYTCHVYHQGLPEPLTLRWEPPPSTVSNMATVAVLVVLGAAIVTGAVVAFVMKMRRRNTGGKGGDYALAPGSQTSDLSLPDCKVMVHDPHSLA

How did the development or survival of double positive (DP) T cells from OT-1 progenitors in OP9-DL1 culture, flow cytometry turn out when “OT-1 transgenic TCR (specific for ovalbumin peptide SIINFEKL presented on H-2Kb)” was run?
The development or survival of double positive (DP) T cells from OT-1 progenitors in OP9-DL1 culture, flow cytometry was greater than 0.01 µM.
